Assay [1] deals with T1, elastase (Homo sapiens, UniProt P08246).
T1 construct: purchased Elastin Products Company, Inc. (Owensville, MO, USA)
T1 sequence (P08246 30-267): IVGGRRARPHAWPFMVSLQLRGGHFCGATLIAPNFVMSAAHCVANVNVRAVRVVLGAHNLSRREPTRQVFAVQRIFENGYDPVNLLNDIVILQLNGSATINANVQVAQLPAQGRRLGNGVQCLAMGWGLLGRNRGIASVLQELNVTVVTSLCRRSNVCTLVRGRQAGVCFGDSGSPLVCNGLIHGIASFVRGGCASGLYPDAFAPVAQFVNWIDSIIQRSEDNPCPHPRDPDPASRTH
Conditions: pathologic conditions associated with neutrophil dysfunction; ref [22]; cited from earlier work. The text has this:
Neutrophils also release granule contents containing enzymes such as elastase, proteinase-3, and cathepsin G. Elastase, a particularly inflammatory enzyme, interferes with thrombomodulin function, and cleaves TF pathway inhibitor (TFPI), the physiological inhibitor of the extrinsic pathway. […] Elastase also induces proteinase-activated receptor activation, contributes to cytokine production and processing, inactivates metalloprotease inhibitors, deg ...

In assay [2] the test system is neutrophil. The settings on record: migration induced by PAF, fMLP or IL-8; ref [49]–[51]; cited from earlier work. An excerpt: Once released, serine protease may bind to the cell surface and remains relatively inaccessible to inhibitors, in contrast to soluble enzymes, [48]. Elastase and other serine proteases reportedly modulate several functions of neutrophils, including chemokine activation and degradation, cell recruitment, receptor activation, activation of lymphocytes, NET formation, and cleavage of adhesion molecules, apoptotic proteins, and anticoagulants. Assay ...

Assay [3] deals with inflamed microvessels. Also noted: method as in PMID 8400269. The settings on record: intravital microscopy of inflamed microvessels; ref [50]; cited from earlier work.
Assay [4] has as its system neutrophils. Description: Neutrophil-induced coagulation. It is filed as cell-based, human. The settings on record: neutrophils with PMA 50 nM, 3 h; 370 sec without PMA. How it is done: (§1) A) Platelet aggregation. Washed human platelets were stimulated with elastase only (500 nM, left panel), or cathepsin G only (110 nM, middle tracing), or elastase followed by cathepsin G (right tracing). […] Aggregation response was monitored by turbidimetry using a Lumi-Aggregometer. D) TFPI cleavage. […] After 2 h, reactions were stopped by addition of LDS loading buffer (under reducing conditions, 10 mM DTT), boiled for 5 min, and loaded in 4–12% Nu-PAGE gel. Gels were Coomassie Blue-stained. E) Neutrophil-induced coagulation. […] Fifty µl of this suspension was added to 50 µl of plasma, and reactions were started by addition of CaCl2 (12.5 mM, final concentration)(*, p<0.05).
Whole blood (5 mL collected in 0.5 mL of 3.2% sodium citrate) from healthy donors was diluted in an equal volume of PBS, layered over 5 mL of HISTOPAQUE solution (10771, Sigma Aldrich), and centrifuged for 40 min, at 400×g, at room temperature. The lower interphase having granulocytes was collected and transferred to a 15-ml Falcon tube and resuspended in 10 ml ammonium chloride lysis buffer (1.7 M NH4Cl, […], 1 mM EDTA) to lyse red blood cells. Lysis was carried out twice followed by centrifugation for 10 min at 400×g. Neutrophils were washed with PBS and resuspended at 1×10^6 cells/mL in high glucose DMEM (GIBCO). Neutrophils were kept on ice. […]

In assay [5] the test system is neutrophils. The assay is described as follows: NETs formation. It is filed as cell-based, human. The settings on record: PMA 5 nM, 3 h, no inhibitor. As for the experimental part:
Left panel, non-activated neutrophil (no PMA). Formation of NETs was visualized under confocal microscopy, using antibody against citrullinated histone. Representative experiment is shown (4 different donors). B) Quantification. Performed as described in Methods.
Whole blood (5 mL collected in 0.5 mL of 3.2% sodium citrate) from healthy donors was diluted in an equal volume of PBS, layered over 5 mL of HISTOPAQUE solution (10771, Sigma Aldrich), and centrifuged for 40 min, at 400×g, at room temperature. The lower interphase having granulocytes was collected and transferred to a 15-ml Falcon tube and resuspended in 10 ml ammonium chloride lysis buffer (1.7 M NH4Cl, […], 1 mM EDTA) to lyse red blood cells. Lysis was carried out twice followed by centrifugation for 10 min at 400×g. […]
Cells were fixed with 500 µl of 4% paraformaldehyde (final concentrations) for 10 min, washed 3 times with PBS and incubated for 10 min with blocking solution (PBS, 10%FBS, 5 mg/ml BSA). […] NETs were quantified according to Farley et al. Briefly, NETs were identified on digitalized images as Hoechst-positive fibrils emanating from cells with an overall length at least twice as long as the cell diameter and were counted for at least two fields of view per variable. Results were expressed as the percentage of NETs/total number of granulocytes.

Assay [6] deals with bacterial strains. The assay is described as follows: Minimum inhibitory concentration (MIC), control over all strains. It is filed as cell-based. The settings on record: ciprofloxacin quality control, 1024-0 ng/ml, each strain; not shown.
The subject of assay [7] is normal human plasma. The assay is described as follows: PT. It is filed as biochemical. The settings on record: heparin control 100 µg/ml; not shown. As for the experimental part:
(§2) aPTT and PT were evaluated on a STart 4 stago coagulometer (Diagnostica Stago, Parsippany, NJ, USA). Freeze-dried, citrated, normal human plasma was resuspended in ultra-pure water. […] Then, 50 µl of pre-warmed aPTT reagent (STA PTT; Diagnostica Stago, Asnières sur Seine, France) was added and incubated for an additional 2 min. CaCl2 (50 µl at 25 mM) was added to start reactions. […] Then, 100 µl of the PT reagent (NEOplastine CI plus; Diagnostica Stago) was added. Time for clot formation was recorded in duplicate.

Assay [8] relates to normal human plasma. The assay is described as follows: aPTT. It is filed as biochemical. The settings on record: heparin control 10 µg/ml; not shown. How it is done: as §2
The test system of assay [9] is monocyte-like cells. Set-up: method as in PMID 16352738. The settings on record: internalized by monocyte-like cells, ref [57], cited from earlier work.
Assay [10] concerns the target T2, neutrophil elastase (Homo sapiens, UniProt P08246).
T2 chain: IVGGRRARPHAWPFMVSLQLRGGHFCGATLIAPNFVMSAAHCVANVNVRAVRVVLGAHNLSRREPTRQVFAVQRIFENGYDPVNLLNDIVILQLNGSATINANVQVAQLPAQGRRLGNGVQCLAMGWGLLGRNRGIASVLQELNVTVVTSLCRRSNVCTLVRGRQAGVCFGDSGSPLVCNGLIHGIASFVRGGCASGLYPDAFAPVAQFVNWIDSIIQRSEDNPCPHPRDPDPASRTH
The assay is described as follows: SPR. (In general: In SPR one partner is held on a chip, and binding of the other changes the refractive index at the surface.)

Assay [11] concerns the target T2, neutrophil elastase. Description: enzyme inhibition assay (chromogenic substrate, Cheng-Prusoff).
In assay [12] the test system is washed human platelets. The assay is described as follows: Platelet aggregation, cathepsin G-induced. It is filed as cell-based. The settings on record: low dose cathepsin G 110 nM, no inhibitor. As for the experimental part: as §1
(§3) Platelet-rich plasma was obtained by plateletpheresis from medication-free platelet donors at the Department of Transfusion Medicine (NIH blood bank). Washing of platelets and platelet aggregation were performed in a Lumi-aggregometer (Chronol-Log, Haverstown, MD, USA) as described, [87].

In assay [13] the test system is washed human platelets. Description: Platelet aggregation, elastase followed by cathepsin G. It is filed as cell-based. Conditions: elastase 500 nM, no inhibitor. As for the experimental part:
as §1, §3

Assay [14] deals with human neutrophil elastase. The assay is described as follows: TFPI cleavage by elastase (SDS/PAGE). The settings on record: elastase 0.8 µg/ml, TFPI 1 µg, 2 h at RT, no inhibitor. It is filed as biochemical. As for the experimental part: as §1
After 2 h at RT, reactions were stopped by addition of Laemmli buffer (supplemented with dithiothreitol) and boiled for 5 min. Proteins were separated by 4% to 12% NuPAGE (MES buffer); gels were stained with Coomassie Blue R-250 and destained with 40% methanol. See Blue molecular weight (mol. wt.) markers were used (Invitrogen).

`Cc1c(-c2ccnn2C)cc(C(=O)NCc2ccc(S(C)(=O)=O)cn2)c(=O)n1-c1cccc(C(F)(F)F)c1` [AZD9668]: the clinical trial results in assay [1] is reported as “mixed results”.
For the molecule `CO[C@H]1C(=O)N2C(C(=O)N3CCC[C@H]3C(=O)O)=C(COC(C)=O)CS(=O)(=O)[C@H]12` [L658758, reference compound], in assay [2], the chemotactic neutrophil functions entry is recorded as “blocks chemotactic neutrophil functions”. Further, in assay [3], the neutrophil transmigration entry is “inhibition of neutrophil transmigration”.
As to `CCCCCCCCCCCCCC(=O)O[C@@H]1[C@@H](C)[C@@]2(O)[C@@H](C=C(CO)C[C@]3(O)C(=O)C(C)=C[C@@H]23)[C@@H]2C(C)(C)[C@]12OC(C)=O` [PMA, Phorbol 12-myristate 13-acetate, reference compound], in assay [4], the clotting time was determined as 250 s. Further, the “induction of NETs” value in assay [5] is listed as “induces a strong response”.
The MIC is the least concentration at which growth counts as inhibited. Low readings indicate inhibition by little substance, high ones a need for much substance. Regarding `O=C(O)c1cn(C2CC2)c2cc(N3CCNCC3)c(F)cc2c1=O` [ciprofloxacin], the minimal inhibitory concentration (MIC) in assay [6] is < 1 µg/mL.
Regarding `CC(C)(C)C(=O)Oc1ccc(S(=O)(=O)Nc2ccccc2C(=O)NCC(=O)O)cc1` [sivelestat], the clinical trial results in [1] is given as “mixed results”.
Take heparin: the PT entry in [7] is on record as “prolonged”. Besides, the aPTT entry in [8] is “prolonged”.

B1: secretory leukocyte proteinase inhibitor (protein, UniProt P03973 26-132, looked up)
Antileukoproteinase: SGKSFKAGVCPPKKSAQCLRYKKPECQSDWQCPGKKRCCPDTCGIKCLDPVDTPNPTRRKPGKCPVTYGQCLMLNPPNFCEMDGQCKRDLKCCMGMCGKSCVSPVKA
For the molecule B1, the chemotactic neutrophil functions entry in [2] was “blocks chemotactic neutrophil functions”. Besides, the p65 binding result in assay [9] (binds NF-κB binding sites) is “inhibit p65 binding”. Further, in assay [9], the “TNF-α and IL-8 generation” value was “promote inhibition of TNF-α and IL-8 generation”.

B2: Agaphelin 1-58 (protein)
chain: DINSEMATCACQLIYRPVCASNNESYSNECVLKCASETPTGRSIGLHKVKDGNCNGEF
The Kd is the free concentration of one partner at which half of the binding sites on the other are occupied at equilibrium, for simple one-to-one binding. Low readings indicate tighter binding, high ones weaker binding. As usually defined, the Ki is a dissociation constant, usually derived from enzyme kinetics or from competition with a known ligand. A higher Ki goes with a looser hold on the target. In the case of B2, the affinity in [10], expressed as Kd, was 17.4 nM. In assay [11], this molecule gave a Ki of 9.22 nM.

B3: Eglin C: pharmacologic inhibitor of elastase (protein, UniProt P01051 1-70, looked up)
Eglin C: TEFGSELKSFPEVVGKTVDQAREYFTLHYPQYDVYFLPEGSPVTLDLRYNRVRVFYNPGTNVVNHVPHVG
As to B3, the chemotactic neutrophil functions result in assay [2] is “blocks chemotactic neutrophil functions”. Also, the neutrophil transmigration entry in assay [3] is reported as “inhibition of neutrophil transmigration”.

B4: cathepsin G: neutrophil protease used as platelet agonist (protein, UniProt P08311 21-244, looked up)
Cathepsin G: IIGGRESRPHSRPYMAYLQIQSPAGQSRCGGFLVREDFVLTAAHCWGSNINVTLGAHNIQRRENTQQHITARRAIRHPQYNQRTIQNDIMLLQLSRRVRRNRNVNPVALPRAQEGLRPGTLCTVAGWGRVSMRRGTDTLREVQLRVQRDRQCLRIFGSYDPRRQICVGDRRERKAAFKGDSGGPLLCNNVAHGIVSYGKSSGVPPEVFTRVSSFLPWIRTTMRS
Take B4: the “platelet activation by cathepsin G only” value in assay [12] is “activate platelets”.

B5: elastase: neutrophil elastase, enzyme used as stimulus (protein, UniProt P08246 30-267, looked up)
Neutrophil elastase: IVGGRRARPHAWPFMVSLQLRGGHFCGATLIAPNFVMSAAHCVANVNVRAVRVVLGAHNLSRREPTRQVFAVQRIFENGYDPVNLLNDIVILQLNGSATINANVQVAQLPAQGRRLGNGVQCLAMGWGLLGRNRGIASVLQELNVTVVTSLCRRSNVCTLVRGRQAGVCFGDSGSPLVCNGLIHGIASFVRGGCASGLYPDAFAPVAQFVNWIDSIIQRSEDNPCPHPRDPDPASRTH
Regarding B5, the “shape change or aggregation by elastase only” value in assay [13] is recorded as “does not promote shape change or aggregation”. Further, in assay [14], the “TFPI cleavage by elastase” value is given as “cleaves TFPI”.

These data come from article PMC4161438 (PLoS Pathogens, 2014).
